Experimental findings from patent publication US8198236B2, “Methods and compositions for the treatment of cancer” (Washington University, priority 2007, dated 2012) are described below.

One assay relates to cytosolic β-catenin. Description: Cytosolic β-catenin level by western blotting in LRP6-transduced HT1080 cells. In kind it is cell-based, human. The following applies: 0.5 to 5 nM Mesd, 2 hours at 37° C. The procedure:
[…] After washing in ice-cold PBS, cells were collected and homogenized in a glass Dounce homogenizer in buffer consisting of 100 mM Tris-HCl pH 7.4, 140 mM NaCl, 2 mM DTT, 2 mM PMSF, and 1× Complete™ protease inhibitors (500 μl/well). The homogenate was centrifuged for 10 minutes at 500 g, and the supernatant was further centrifuged at 100,000 g at 4° C. for 90 minutes. The resulting supernatant was designated the cytosolic fraction. The β-catenin levels were then examined by western blotting using β-catenin-specific antibody from Cell Signaling Technology. The immunoreactive proteins were detected using the ECL™ system (Amersham). Films showing immunoreactive bands were scanned with a Kodak Digital Science DC 120 Zoom Digital Camera and band intensities were analyzed with Kodak Digital Science1D Image Analysis Software.
β-catenin is a key molecule in the Wnt/β-catenin signaling pathway. A cytosolic pool of β-catenin interacts with DNA-binding proteins and participates in Wnt signal transduction (Hinck, L., J. Cell Biol. 125: 1327-1340, 1994; Gottardi, C. J., J. Cell Biol. 153: 1049-1060, 2001; Klingelhofer, J., et al., Oncogene 22: 1181-1188, 2003). To determine whether Mesd binding to cell surface LRP6 directly regulates Wnt signaling, we studied the effects of Mesd binding on cytosolic β-catenin levels in HT1080-LRP6 cells. […]

The next assay has as its target T1, LRP6 (Homo sapiens, UniProt O75581).
T1 construct: expressed in transfected cells; host or cells: human HT1080 cells, retroviral vector pLNCX2
The assay is described as follows: Competition for 125I-Mesd binding to cell surface LRP6. The procedure:
To examine whether Mesd binds with high affinity to most members of the LDLR family at the cell surface, we performed cell surface ligand binding experiments with cells stably transduced with LRP6 cDNA. Human HT1080 cells, which express undetectable levels of LRP6, were transduced with a viral vector alone (pLNCX2) or with vector containing LRP6 cDNA (Li, Y., Oncogene 23: 9129-9135, 2004) and used for ^125I-Mesd binding (FIG. 1A). ^125I-Mesd (5 nM) reached maximal binding after 2 hours incubation at 4° C. with LRP6-expressing HT1080 cells (FIG. 1A).
Cells (2×10^5) were seeded into 12-well dishes 1 day prior to assay. Ligand-binding buffer (minimal Eagle's medium containing 0.6% BSA with a different concentration of radioligand, 0.6 ml/well) was added to cell monolayers, in the absence or the presence of 500 nM unlabeled RAP or 500 nM unlabeled Mesd, followed with incubation for 0-4 hours at 4° C. Thereafter, overlying buffer containing unbound ligand was removed, and cell monolayers were washed and lysed in low-SDS lysis buffer (62.5 mM Tris-HCl pH 6.8, 0.2% SDS, 10% v/glycerol) and counted.
We performed binding of 5 nM ^125I-Mesd (5 nM) to cell surface LRP6 in the presence of various concentrations of excess unlabeled RAP or 500 nM unlabeled Mesd (FIG. 8B). RAP inhibited ^125I-Mesd binding in a dose-dependent manner with ˜60% inhibition achieved with 500 nM RAP, whereas the same concentration of unlabeled Mesd inhibited >90% of ^125I-Mesd binding (FIG. 8B). […] The lower affinity of RAP to cell surface LRP6 may also contribute to its lower efficiency in inhibition of Mesd binding.
In FIG. 8A, binding of ^125I-RAP (5 nM) to LRP6-transduced HT1080 cells and the control cells was carried out for 4 hours at 4° C. in the absence (total) or presence of 500 nM RAP, or 500 nM Mesd. In FIG. 8B, binding of^125I-Mesd (5 nM) to LRP6-transduced HT1080 cells was carried out for 2 hours at 4° C. in the absence (total) or presence of various concentrations of RAP or 500 nM Mesd. (C) LRP6-mediated ^125I-Mesd (5 nM) degradation was carried out for 4 hours at 37° C. in the absence or presence of 500 nM Mesd or 500 nM RAP. Values are the means of triple determinations with the s.d. indicated by error bars.
In order to investigate the binding of Mesd polypeptide and an Mesd oligopeptide to either LRP5 or LRP6, binding assays were performed using ^125I-Mesd or ^125I-DKK1 (FIG. 10).

The test system of a further assay is Wnt signaling. The assay is described as follows: TCF/LEF-luc reporter assay in Wnt-3A-treated HEK293 cells. The following applies: Wnt3A conditioned medium plus 500 nM, 16 hours at 37° C. In kind it is cell-based. Here is the method:
HEK293 cells were plated into six-well plates. For each well, 0.1 μg of the TOP-FLASHTCF luciferase construct (Upstate Biotechnology) was cotransfected with 0.8 μg Mesd-expressing vector, 0.8 μg Mesd mutant-expressing vector, or empty vector. A β-galactosidase-expressing vector (Promega, Madison, Wis.) was included as an internal control for transfection efficiency. After 48 hours, cells were lysed and both luciferase and β-galactosidase activities were determined with enzyme assay kits (Promega). The luciferase activity was determined with a luminometer using the Dual Luciferase Assay system (Promega). Luciferase activity was normalized to the activity of the β-galactosidase.
In these experiments, transfected cells were treated without Wnt-3A or with Wnt-3A plus the indicated inhibitors (Mesd and/or Dkk1) for 16 hours at 37° C. Wnt signaling was measured by quantifying the luciferase activity using a live cell imaging system.
A general note: A reporter such as luciferase makes a cellular process visible.

A further assay deals with HCC1187 cells. The assay is described as follows: MTT assay of Wnt3a CM-stimulated growth of HCC1187 cells. In kind it is cell-based, human. To be noted: Mesd 1 μM, 24 h. The procedure: Cell growth and cell proliferation were measured by MTT assay (Promega) and BrdU incorporation using the BrdU ELISA kit (Roche Molecular Systems) according to the manufacturers' instructions. […] Breast cancer cells expressing control or LRP6 shRNA were seeded into 48-well plates. MTT-labeling reagent was added to each well 24 h later, and plates were incubated at 37° C. for 4 h. After the incubation period, the formazan crystals were dissolved in an MTT solubilization reagent and the resulting color was quantified spectrophotometrically. In some experiments, cell proliferation was measured by BrdU incorporation using the BrdU ELISA kit (Roche Molecular Systems) according to the manufacturer's instructions. Briefly, cancer cells expressing control or LRP6 shRNA were plated on 96-well plate. Cells were incubated with BrdU for 24 h, and the newly synthesized BrdU-DNA was then determined by colorimetry using an ELISA reader. All experiments were performed three times in triplicate.
In FIG. 20, * indicates p<0.05 compared to L cell CM; ** indicates p<0.01 compared to L cell CM.
Background: Tetrazolium assays rely on reduction of a dye to a coloured formazan, in cell work by metabolically active cells.

T1 sequence (O75581 20-1613): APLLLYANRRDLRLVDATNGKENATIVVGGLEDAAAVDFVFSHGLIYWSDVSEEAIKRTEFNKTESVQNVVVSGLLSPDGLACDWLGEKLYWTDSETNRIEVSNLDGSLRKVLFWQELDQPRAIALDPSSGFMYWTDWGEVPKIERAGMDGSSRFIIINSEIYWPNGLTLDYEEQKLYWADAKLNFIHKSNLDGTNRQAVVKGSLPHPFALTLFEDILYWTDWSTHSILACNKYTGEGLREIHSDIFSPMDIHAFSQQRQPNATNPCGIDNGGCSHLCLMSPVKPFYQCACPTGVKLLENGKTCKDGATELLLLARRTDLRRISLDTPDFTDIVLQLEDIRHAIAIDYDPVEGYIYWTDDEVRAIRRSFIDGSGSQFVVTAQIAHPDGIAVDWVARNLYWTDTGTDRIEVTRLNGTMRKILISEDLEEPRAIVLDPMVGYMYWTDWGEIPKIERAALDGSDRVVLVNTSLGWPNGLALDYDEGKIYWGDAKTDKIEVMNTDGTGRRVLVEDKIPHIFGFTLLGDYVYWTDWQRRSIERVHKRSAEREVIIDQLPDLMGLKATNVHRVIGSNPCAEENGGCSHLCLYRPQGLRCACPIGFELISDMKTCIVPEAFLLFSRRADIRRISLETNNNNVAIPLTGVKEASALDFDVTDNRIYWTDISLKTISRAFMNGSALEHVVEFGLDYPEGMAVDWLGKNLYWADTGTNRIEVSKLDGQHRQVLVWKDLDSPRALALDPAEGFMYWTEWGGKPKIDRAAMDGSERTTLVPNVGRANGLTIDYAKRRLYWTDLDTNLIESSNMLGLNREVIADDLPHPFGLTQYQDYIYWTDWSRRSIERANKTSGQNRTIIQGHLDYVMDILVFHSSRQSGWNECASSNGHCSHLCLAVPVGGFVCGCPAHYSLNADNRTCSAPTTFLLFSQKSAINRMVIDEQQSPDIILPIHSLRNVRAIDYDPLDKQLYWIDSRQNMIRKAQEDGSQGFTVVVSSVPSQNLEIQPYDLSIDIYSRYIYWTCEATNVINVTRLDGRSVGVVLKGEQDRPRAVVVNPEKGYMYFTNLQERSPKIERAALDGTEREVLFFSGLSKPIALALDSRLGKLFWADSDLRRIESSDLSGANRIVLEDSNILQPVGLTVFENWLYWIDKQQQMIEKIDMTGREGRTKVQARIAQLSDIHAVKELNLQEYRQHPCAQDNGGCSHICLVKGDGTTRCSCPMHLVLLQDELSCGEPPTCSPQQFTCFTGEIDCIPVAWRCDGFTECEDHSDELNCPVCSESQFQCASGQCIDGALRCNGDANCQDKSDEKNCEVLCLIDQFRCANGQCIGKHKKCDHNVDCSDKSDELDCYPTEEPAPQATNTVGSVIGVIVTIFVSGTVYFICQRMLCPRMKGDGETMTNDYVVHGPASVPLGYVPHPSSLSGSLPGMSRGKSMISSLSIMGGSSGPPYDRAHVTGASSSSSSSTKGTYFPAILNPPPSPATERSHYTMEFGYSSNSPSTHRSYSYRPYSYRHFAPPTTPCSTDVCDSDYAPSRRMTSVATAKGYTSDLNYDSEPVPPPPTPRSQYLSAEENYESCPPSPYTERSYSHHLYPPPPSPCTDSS

B1: Mesd: Recombinant full-length mouse Mesd expressed in E. coli, N-terminal polyhistidine tail, lacking the signal peptide (protein)
chain: ADTPGEATPPPRKKKDIRDYNDADMARLLEQWEKDDDIEEGDLPEHKRPSAPIDFSKLDPGKPESILKMTKKGKTLMMFVTVSGNPTEKETEEITSLWQGSLFNANYDVQRFIVGSDRAIFMLRDGSYAWEIKDFLVSQDRCAEVTLEGQMYPGKGGGSKEKNKTKPEKAKKKEGDRKPRASKEDNRAGSRREDL
modifications: left off: small tags and cut ends
notes: Recombinant full-length mouse Mesd expressed in E. coli, N-terminal polyhistidine tail, lacking the signal peptide
Take B1: in the assay on cytosolic β-catenin, the “Change in cytosolic β-catenin levels” value is given as “no significant change”. Moreover, the “Inhibition of 125I-Mesd binding to cell surface LRP6” value with LRP6 (500 nM unlabeled competitor, 125I-Mesd 5 nM, 2 hours at 4° C.) was over 90%. In addition, in the assay with LRP6 (500 nM unlabeled, 125I-Mesd 5 nM, 4° C.), the “Effect of excess unlabeled protein on 125I-Mesd binding” value was “completely eliminated this binding”. The “Reduction of binding of 125I-Mesd to LRP6” value in the assay with LRP6 (FIG. 10C, compared with LRP5) is given as “even greater reduction”. Moreover, the “Inhibition of Wnt signaling (luciferase activity)” value in the assay on Wnt signaling is “moderately inhibit”. Further, in the assay with HCC1187 cells, the “Effect on Wnt3a CM-increased cell growth” value is on record as “abolished”.
